Article PMC4917879 (Biochemistry, 2016)

B1: Formate dehydrogenase from Candida boidinii (CbFDH) ([Candida] boidinii) (protein)
chain: MKIVLVLYDAGKHAADEEKLYGCTENKLGIANWLKDQGHELITTSDKEGGNSVLDQHIPDADIIITTPFHPAYITKERIDKAKKLKLVVVAGVGSDHIDLDYINQTGKKISVLEVTGSNVVSVAEHVLMTMLVLVRNFVPAHEQIINHDWEVAAIAKDAYDIEGKTIATIGAGRIGYRVLERLVPFNPKELLYYDYQALPKDAEEKVGARRVENIEELVAQADIVTINAPLHAGTKGLINKELLSKFKKGAWLVNTARGAICVAEDVAAALESGQLRGYGGDVWFPQPAPKDHPWRDMRNKYGAGNAMTPHYSGTTLDAQTRYAEGTKNILESFFTGKFDYRPQDIILLNGEYITKAYGKHDKK

Assays:
[1] = molecular target: T1, Formate dehydrogenase from Candida boidinii (CbFDH) ([Candida] boidinii, UniProt A0A0A1EQY0); experiment: ITC and crystal structure of the ternary complex with azide at […] Å; format: binding
T1 sequence (A0A0A1EQY0 1-364): B1 chain

purified protein = substrate: O=CO; experiment: purified protein; format: biochemical, [Candida] boidinii; conditions: NAD+

Row | Molecule | Kd [1] | kcat (purified protein) | kcat/Km (purified protein)
1 | NC(=O)c1ccc[n+]([C@@H]2O[C@H](COP(=O)([O-])OP(=O)(O)OC[C@H]3O[C@@H](n4cnc5c(N)ncnc54)[C@H](O)[C@@H]3O)[C@@H](O)[C@H]2O)c1 [NAD+] | 92 ± 4 µM |  | 
2 | B1 |  | 5.6 ± 0.2 s⁻¹ | 1400 ± 200 M⁻¹ s⁻¹
